Measured values reported in patent US20170240629A1 (Hoffmann-La Roche, published 2017).
Where two headings read alike, the source gives them in different places.

What was measured:
[1] = molecular target: T1, human IL-1beta (human, UniProt P01584 117-269); assay: SPR (BIAcore); antibody captured by anti-Fc, IL-1beta injected
Description: (§1) All experiments were performed at 25° C. using HBS-P (10 mM His, 140 mM NaCl, 0.05% Tween 20 pH 7.4) as running and dilution buffer. Anti-human or anti-mouse Fc antibodies were immobilized on a Series S CM5 Sensor Chip (GE Healthcare) using standard amine coupling chemistry. […] The dissociation phase was monitored for 600 sec by washing with running buffer. […] The surface was regenerated by injecting 3 M MgCl2 (for anti-human Fc antibody) or 10 mM Glycine pH 1.5 (for anti-mouse Fc antibody) for 60 sec at a flow rate of 5 μl/min. Bulk refractive index differences were corrected by subtracting the response obtained from a mock surface. Blank injections were subtracted (double referencing). The derived curves were fitted to a 1:1 Langmuir binding model using the BIAevaluation software.

[2] = molecular target: T2, cynomolgus IL-1beta (cynomolgus, UniProt P79182 117-268); assay: as above
Description: as §1

[3] = molecular target: T1, human IL-1beta; assay: cell-based or functional assay
[4] = molecular target: T1, human IL-1beta; assay: cell-based or functional assay; remark: listed apart in the source
[5] = molecular target: T1, human IL-1beta; assay: cell-based or functional assay; remark: listed apart in the source
[6] = molecular target: T1, human IL-1beta; assay: cell-based or functional assay; remark: listed apart in the source
[7] = molecular target: T1, human IL-1beta; assay: SPR inhibition; 10 nM human IL-1beta pre-incubated with antibody, injected over immobilised human IL-1RI (competitor)
Description: All experiments were performed at 25° C. using HBS-P (10 mM His, 140 mM NaCl, 0.05% Tween 20 pH 7.4) as running and dilution buffer. Human IL-1RI was immobilized on a Series S CM5 Sensor Chip (GE Healthcare) using standard amine coupling chemistry. […] The surface was regenerated by injecting 10 mM NaOH for 60 sec at a flow rate of 5 μl/min. Bulk refractive index differences were corrected by subtracting the response obtained from a mock surface.

[8] = molecular target: T1, human IL-1beta; assay: cell-based or functional assay; remark: listed apart in the source
[9] = molecular target: T3, human ANG2-RBD-mouse Fc-region fusion (human, UniProt O15123 275-496, limits assumed); assay: SPR (BIAcore T200); ANG2-RBD-mouse Fc captured, antibody injected (Example 52)
T3 construct: domain: RBD; also called human ANG2-RBD-murine Fc-region fusion; not shown: mouse Fc-region
T3 sequence (looked up): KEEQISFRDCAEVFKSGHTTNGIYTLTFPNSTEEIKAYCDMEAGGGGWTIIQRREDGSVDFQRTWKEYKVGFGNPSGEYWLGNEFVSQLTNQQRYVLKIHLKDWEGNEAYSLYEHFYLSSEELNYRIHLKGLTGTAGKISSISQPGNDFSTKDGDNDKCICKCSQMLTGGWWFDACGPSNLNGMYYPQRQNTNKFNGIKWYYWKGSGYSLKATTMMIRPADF

[10] = molecular target: T4, human PDGF-BB (human, UniProt P01127 82-190); assay: cell-based or functional assay
[11] = molecular target: T5, ANG2 (UniProt O15123 68-496, limits assumed); assay: cell-based or functional assay
T5 sequence (looked up): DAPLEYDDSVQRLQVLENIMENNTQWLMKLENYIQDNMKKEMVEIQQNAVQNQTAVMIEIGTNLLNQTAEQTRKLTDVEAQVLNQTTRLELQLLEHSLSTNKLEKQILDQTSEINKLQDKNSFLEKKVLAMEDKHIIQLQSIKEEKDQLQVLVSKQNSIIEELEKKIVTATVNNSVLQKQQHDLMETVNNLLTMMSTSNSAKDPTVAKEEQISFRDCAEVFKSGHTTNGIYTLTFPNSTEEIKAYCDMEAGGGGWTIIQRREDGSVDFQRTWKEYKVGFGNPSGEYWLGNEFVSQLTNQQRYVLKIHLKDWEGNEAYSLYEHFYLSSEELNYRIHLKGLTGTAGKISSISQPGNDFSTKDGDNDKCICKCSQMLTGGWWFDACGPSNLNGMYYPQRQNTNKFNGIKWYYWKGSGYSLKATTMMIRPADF

[12] = molecular target: T4, human PDGF-BB; assay: cell-based or functional assay; remark: listed apart in the source
[13] = molecular target: T4, human PDGF-BB; assay: SPR (BIAcore T200); PDGF-BB coupled on CM3 chip, antibody injected (Example 52); parameters: t½: unit not given here
[14] = molecular target: T1, human IL-1beta; assay: SPR (BIAcore); antibody captured by anti-Fc, IL-1beta injected; remark: listed apart in the source
[15] = molecular target: T2, cynomolgus IL-1beta; assay: as above; remark: listed apart in the source

T4 sequence (P01127 82-190 limits assumed): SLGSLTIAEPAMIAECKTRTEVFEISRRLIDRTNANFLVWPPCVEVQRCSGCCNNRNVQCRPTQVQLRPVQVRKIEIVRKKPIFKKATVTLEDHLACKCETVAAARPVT

B1: huH34-1 (antibody, V domains shown)
VH: QVQLVQSGAEVKKPGASVKVSCKASGYTFTGYYMHWVRQAPGQGLEWMGYISSYSGFTTYAQKFQGRVTMTRDTSISTAYMELSRLRSDDTAVYYCARSDYYGTSLYWGQGTLVTVSS
VL: EIVLTQSPATLSLSPGERATLSCRASSSVSYMHWSQQKPGQAPRLLIYSTSNLASGIPARFSGSGSGTDFTLTISSLEPEDFAVYYCHQWSNYYTFGQGTKLEIK
notes: VH = 01 and VL = 16 read by analogy with huH34-2 (VH 06, VL 16); Humanized
- Kd [1]: 1.02 nM
- koff [1]: 0.00151 s⁻¹
- kon [1]: 1.49e+06 M⁻¹ s⁻¹
- Kd [2]: 1.31 nM
- koff [2]: 0.00212 s⁻¹
- kon [2]: 1.61e+06 M⁻¹ s⁻¹
- EC50, reduction of IL-6 expression upon IL-1beta stimulation of A549 cells [3]: 5.52 nM
- IC50, inhibition of ICAM-1 expression upon IL-1beta stimulation of A549 cells [4]: > 7 nM

B2: Canakinumab (antibody, V domains shown)
VH: QVQLVESGGGVVQPGRSLRLSCAASGFTFSVYGMNWVRQAPGKGLEWVAIIWYDGDNQYYADSVKGRFTISRDNSKNTLYLQMNGLRAEDTAVYYCARDLRTGPFDYWGQGTLVTVSS
VL: EIVLTQSPDFQSVTPKEKVTITCRASQSIGSSLHWYQQKPDQSPKLLIKYASQSFSGVPSRFSGSGSGTDFTLTINSLEAEDAAAYYCHQSSSLPFTFGPGTKVDIKR
- Kd [1]: 0.02 nM
- koff [1]: 5.2e-05 s⁻¹
- kon [1]: 2.78e+06 M⁻¹ s⁻¹
- Kd [2]: 13.2 nM
- koff [2]: 0.0284 s⁻¹
- kon [2]: 2.15e+06 M⁻¹ s⁻¹
- IC50, inhibition of proliferation of D10 cells [5]: 1.99 nM
- EC50, reduction of IL-6 expression upon IL-1beta stimulation of A549 cells [6]: 0.0864 µg/mL
- IC50 [7]: 1.6 nM
- EC50, reduction of IL-6 expression upon IL-1beta stimulation of A549 cells [3]: 0.12 nM
- IC50, inhibition of ICAM-1 expression upon IL-1beta stimulation of A549 cells [4]: 0.31 nM
- IC50, inhibition of ICAM-1 expression upon IL-1beta stimulation of HUVEC cells [8]: 9.02 nM

B3: antibody 0144 (bispecific antibody, human IgG1, kappa, L234A L235A)
chain 1: SYVLTQPPSVSVAPGQTARITCGGNNIGSKSVHWYQQKPGQAPVLVVYDTSDRPSGIPERFSGSNSGNTATLTISRVEAGDEADYYCQVWDSSSDHWVFGGGTKLTVLSSASTKGPSVFPLAPSSKSTSGGTAALGCLVKDYFPEPVTVSWNSGALTSGVHTFPAVLQSSGLYSLSSVVTVPSSSLGTQTYICNVNHKPSNTKVDKKVEPKSCDKTHTCPPCPAPEAAGGPSVFLFPPKPKDTLMASRTPEVTCVVVDVSHEDPEVKFNWYVDGVEVHNAKTKPREEQYNSTYRVVSVLTVLAQDWLNGKEYKCKVSNKALGAPIEKTISKAKGQPREPQVYTLPPCRDELTKNQVSLWCLVKGFYPSDIAVEWESNGQPENNYKTTPPVLDSDGSFFLYSKLTVDKSRWQQGNVFSCSVMHEALHNAYTQKSLSLSPGK
chain 2: not shown
chain 3: not shown
chain 4: not shown
notes: also called anti-PDGF-B/ANG2 antibody; clone 0144-0004
- Kd [9]: 17 nM
- koff [9]: 0.00155 s⁻¹
- kon [9]: 90600 M⁻¹ s⁻¹
- t½ [9]: 7.43 min
- IC50 Proliferation 3T3 [10]: 0.02 nM
- IC50 Proliferation human pericytes [10]: 0.03 nM
- ANG2 specific pTie2-ELISA, activity against the anti-ANG2/VEGF antibody reported in WO 2014/09465 [11]: 6 fold
- IC50 Migration-Inhibition human pericytes [12]: 0.06 nM
- IC50 Phospho-Inhibition human pericytes [12]: 0.055 nM
- Kd [13]: 3 nM
- koff [13]: 0.000215 s⁻¹
- kon [13]: 83100 M⁻¹ s⁻¹
- t½ [13]: 53

B4: antibody 0085 FAB (Fab, V domains shown)
VH: EVQLVESGGGLVQPGGSLRLSCAASGFTFSSYWMSWVRQAPEKGLEWVSTISDGGGLTYYADSVKGRFTISRDNAKNSLYLQMNSLRAEDTAVYYCAESGGYTDWLFGYWGQGTLVTVSS
VL: not shown
- IC50 Proliferation human pericytes [10]: 0.012 nM
- IC50 Migration-Inhibition human pericytes [12]: 0.27 nM

B5: H34 + C52aS mutations (antibody, V domains shown)
VH: EVQLQQSGPELVKTGASVKISCKASGYSFTGYYMHWVKQSHGKSLEWIGYISSYNAFTTYNQRFRGKATFTVDTSSSTAYMQFNSLTSEDSAVYYCVRSDYYGTSLYWGQGTTLTVSS
VL: QIVLTQSPAIMSASLGEEITLTCSASSSVSYMHWSQQKSGSSPKLLIYSTSNLASGVPSRFSGSGSGTFYSLTISSVEAEDAADYYCHQWSNYYTFGGGTKLEIK
- Kd [1]: 0.4 nM
- koff [1]: 0.000645 s⁻¹
- kon [1]: 1.6e+06 M⁻¹ s⁻¹
- Kd [2]: 0.51 nM
- koff [2]: 0.000728 s⁻¹
- kon [2]: 1.43e+06 M⁻¹ s⁻¹
- Kd [14]: 0.4 nM
- koff [14]: 0.000645 s⁻¹
- kon [14]: 1.6e+06 M⁻¹ s⁻¹
- Kd [15]: 0.51 nM
- koff [15]: 0.000728 s⁻¹
- kon [15]: 1.43e+06 M⁻¹ s⁻¹
